# Results reported in paper PMC9371921, “Strand annealing and motor driven activities of SMARCAL1 and ZRANB3 are stimulated by RAD51 and the paralog complex” (Nucleic Acids Research, 2022).
# B1: RAD51 paralog complex RAD51B-RAD51C-RAD51D-XRCC2 (BCDX2) (complex, human)
# chain 1: MGSKKLKRVGLSQELCDRLSRHQILTCQDFLCLSPLELMKVTGLSYRGVHELLCMVSRACAPKMQTAYGIKAQRSADFSPAFLSTTLSALDEALHGGVACGSLTEITGPPGCGKTQFCIMMSILATLPTNMGGLEGAVVYIDTESAFSAERLVEIAESRFPRYFNTEEKLLLTSSKVHLYRELTCDEVLQRIESLEEEIISKGIKLVILDSVASVVRKEFDAQLQGNLKERNKFLAREASSLKYLAEEFSIPVILTNQITTHLSGALASQADLVSPADDLSLSEGTSGSSCVIAALGNTWSHSVNTRLILQYLDSERRQILIAKSPLAPFTSFVYTIKEEGLVLQETTFCSVTQAELNWAPEILPPQPPEQLGLQMCHHTQLIF
# chain 2: MRGKTFRFEMQRDLVSFPLSPAVRVKLVSAGFQTAEELLEVKPSELSKEVGISKAEALETLQIIRRECLTNKPRYAGTSESHKKCTALELLEQEHTQGFIITFCSALDDILGGGVPLMKTTEICGAPGVGKTQLCMQLAVDVQIPECFGGVAGEAVFIDTEGSFMVDRVVDLATACIQHLQLIAEKHKGEEHRKALEDFTLDNILSHIYYFRCRDYTELLAQVYLLPDFLSEHSKVRLVIVDGIAFPFRHDLDDLSLRTRLLNGLAQQMISLANNHRLAVILTNQMTTKIDRNQALLVPALGESWGHAATIRLIFHWDRKQRLATLYKSPSQKECTVLFQIKPQGFRDTVVTSACSLQTEGSLSTRKRSRDPEEEL
# chain 3: MGVLRVGLCPGLTEEMIQLLRSHRIKTVVDLVSADLEEVAQKCGLSYKALVALRRVLLAQFSAFPVNGADLYEELKTSTAILSTGIGSLDKLLDAGLYTGEVTEIVGGPGSGKTQVCLCMAANVAHGLQQNVLYVDSNGGLTASRLLQLLQAKTQDEEEQAEALRRIQVVHAFDIFQMLDVLQELRGTVAQQVTGSSGTVKVVVVDSVTAVVSPLLGGQQREGLALMMQLARELKTLARDLGMAVVVTNHITRDRDSGRLKPALGRSWSFVPSTRILLDTIEGAGASGGRRMACLAKSSRQPTGFQEMVDIGTWGTSEQSATLQGDQT
# chain 4: MCSAFHRAESGTELLARLEGRSSLKEIEPNLFADEDSPVHGDILEFHGPEGTGKTEMLYHLTARCILPKSEGGLEVEVLFIDTDYHFDMLRLVTILEHRLSQSSEEIIKYCLGRFFLVYCSSSTHLLLTLYSLESMFCSHPSLCLLILDSLSAFYWIDRVNGGESVNLQESTLRKCSQCLEKLVNDYRLVLFATTQTIMQKASSSSEEPSHASRRLCDVDIDYRPYLCKAWQQLVKHRMFFSKQDDSQSSNQFSLVSRCLKSNSLKKHFFIIGESGVEFC
# notes: human RAD51B, codon-optimized for Sf9, from pFB-FLAG-RAD51Bco-10xHis-RAD51Cco; human RAD51C, codon-optimized for Sf9, from pFB-FLAG-RAD51Bco-10xHis-RAD51Cco; Expressed as a heterotetramer; by mass photometry the preparation was consistent with a dimer of the heterotetramer; also called BCDX2 complex; FLAG-BCDX2 complex; source: Sf9, co-infected with two baculoviruses, purified (Ni-NTA, then …)
# Target: the molecule itself
# Assay: mass photometry; 2 μl (50 nM) protein solution added into 18 μl protein elution buffer; movie recorded for 1 min; Refeyn 2MP mass photometer, NativeMark size marker
protein,measurement,value
B1,stoichiometry N,2
